Values of other authors, collected in publication PMC3485249.
pKd: −log10 of the molar value.

Target: Pygopus PHD PHD (Homo sapiens) (UniProt Q9Y3Y4)

## Pygopus PHD PHD (from UniProt Q9Y3Y4)
  pKd: 6.00
